Results from patent US20220332804A1 (CSL INNOVATION, published 2022).

Legend:
Assay in all cases: SPR, mAb captured, C2 mutant analyte;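 note: Anti-C2 mAbs captured on goat anti-human IgG Biacore CM5 chips, alanine or serine C2 surface mutants flowed over at 37 °C, double-referenced sensorgrams fitted to a 1:1 binding model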
human C2 D419A = biological target: T1, human C2 D419A (human, UniProt P06681 21-752)
T1 sequence: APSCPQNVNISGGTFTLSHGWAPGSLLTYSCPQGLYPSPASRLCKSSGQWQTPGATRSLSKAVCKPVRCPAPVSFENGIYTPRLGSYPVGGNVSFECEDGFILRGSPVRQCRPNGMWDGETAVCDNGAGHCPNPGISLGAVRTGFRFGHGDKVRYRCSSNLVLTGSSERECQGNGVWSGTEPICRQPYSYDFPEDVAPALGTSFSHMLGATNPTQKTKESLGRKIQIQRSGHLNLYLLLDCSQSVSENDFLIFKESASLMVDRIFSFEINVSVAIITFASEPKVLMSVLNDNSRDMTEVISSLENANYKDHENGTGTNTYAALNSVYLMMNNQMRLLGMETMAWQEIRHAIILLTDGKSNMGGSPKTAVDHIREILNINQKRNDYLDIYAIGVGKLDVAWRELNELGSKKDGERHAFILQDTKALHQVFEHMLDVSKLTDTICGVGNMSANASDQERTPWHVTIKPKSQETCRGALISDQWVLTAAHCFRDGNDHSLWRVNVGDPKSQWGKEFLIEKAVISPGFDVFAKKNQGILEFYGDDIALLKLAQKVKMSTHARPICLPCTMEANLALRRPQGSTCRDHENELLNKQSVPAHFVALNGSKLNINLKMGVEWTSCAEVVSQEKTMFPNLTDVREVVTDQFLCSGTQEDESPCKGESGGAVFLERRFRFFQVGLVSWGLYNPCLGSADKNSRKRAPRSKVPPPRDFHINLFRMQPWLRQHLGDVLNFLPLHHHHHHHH

human C2 R434A = biological target: T2, human C2 R434A (human, UniProt P06681 21-752)
T2 sequence: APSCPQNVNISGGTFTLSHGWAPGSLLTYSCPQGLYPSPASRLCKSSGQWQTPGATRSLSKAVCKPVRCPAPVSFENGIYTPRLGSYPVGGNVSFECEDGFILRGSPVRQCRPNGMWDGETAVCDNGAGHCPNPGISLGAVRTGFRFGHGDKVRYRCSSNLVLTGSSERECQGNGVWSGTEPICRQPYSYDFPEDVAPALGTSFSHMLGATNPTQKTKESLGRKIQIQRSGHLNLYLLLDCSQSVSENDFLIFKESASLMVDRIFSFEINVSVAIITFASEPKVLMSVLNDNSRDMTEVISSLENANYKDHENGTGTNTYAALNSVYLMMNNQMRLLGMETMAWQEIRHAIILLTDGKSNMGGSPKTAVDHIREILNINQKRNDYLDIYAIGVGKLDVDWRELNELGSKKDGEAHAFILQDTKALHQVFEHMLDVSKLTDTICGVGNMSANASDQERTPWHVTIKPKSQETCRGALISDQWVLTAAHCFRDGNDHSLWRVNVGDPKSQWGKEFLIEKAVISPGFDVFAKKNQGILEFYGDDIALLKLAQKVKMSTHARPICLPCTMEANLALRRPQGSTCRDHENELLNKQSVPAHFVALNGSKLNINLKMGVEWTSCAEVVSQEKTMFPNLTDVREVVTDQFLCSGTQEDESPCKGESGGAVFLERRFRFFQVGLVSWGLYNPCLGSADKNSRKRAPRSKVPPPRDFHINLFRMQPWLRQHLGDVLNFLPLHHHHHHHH

human C2 A472S = biological target: T3, human C2 A472S (human, UniProt P06681 21-752)
T3 sequence: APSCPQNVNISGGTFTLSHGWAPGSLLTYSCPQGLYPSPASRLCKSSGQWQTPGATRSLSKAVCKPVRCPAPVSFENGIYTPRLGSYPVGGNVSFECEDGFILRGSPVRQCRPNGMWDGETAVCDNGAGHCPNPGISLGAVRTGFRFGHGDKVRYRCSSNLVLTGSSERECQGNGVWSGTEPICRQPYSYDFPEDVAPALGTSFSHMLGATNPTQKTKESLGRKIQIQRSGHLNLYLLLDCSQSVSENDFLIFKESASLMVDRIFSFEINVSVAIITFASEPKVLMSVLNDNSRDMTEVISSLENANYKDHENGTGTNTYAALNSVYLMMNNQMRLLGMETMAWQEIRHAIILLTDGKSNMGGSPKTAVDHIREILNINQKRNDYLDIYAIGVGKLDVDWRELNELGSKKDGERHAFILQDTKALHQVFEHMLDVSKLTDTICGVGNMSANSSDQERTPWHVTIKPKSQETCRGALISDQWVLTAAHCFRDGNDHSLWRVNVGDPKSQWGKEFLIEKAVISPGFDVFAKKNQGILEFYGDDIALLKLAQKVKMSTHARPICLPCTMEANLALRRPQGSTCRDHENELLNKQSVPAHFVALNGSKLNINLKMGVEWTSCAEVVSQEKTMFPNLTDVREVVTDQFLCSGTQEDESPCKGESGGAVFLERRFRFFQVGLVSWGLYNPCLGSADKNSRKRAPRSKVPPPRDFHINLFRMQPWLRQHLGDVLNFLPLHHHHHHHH

human C2 S473A = biological target: T4, human C2 S473A (human, UniProt P06681 21-752)
T4 sequence: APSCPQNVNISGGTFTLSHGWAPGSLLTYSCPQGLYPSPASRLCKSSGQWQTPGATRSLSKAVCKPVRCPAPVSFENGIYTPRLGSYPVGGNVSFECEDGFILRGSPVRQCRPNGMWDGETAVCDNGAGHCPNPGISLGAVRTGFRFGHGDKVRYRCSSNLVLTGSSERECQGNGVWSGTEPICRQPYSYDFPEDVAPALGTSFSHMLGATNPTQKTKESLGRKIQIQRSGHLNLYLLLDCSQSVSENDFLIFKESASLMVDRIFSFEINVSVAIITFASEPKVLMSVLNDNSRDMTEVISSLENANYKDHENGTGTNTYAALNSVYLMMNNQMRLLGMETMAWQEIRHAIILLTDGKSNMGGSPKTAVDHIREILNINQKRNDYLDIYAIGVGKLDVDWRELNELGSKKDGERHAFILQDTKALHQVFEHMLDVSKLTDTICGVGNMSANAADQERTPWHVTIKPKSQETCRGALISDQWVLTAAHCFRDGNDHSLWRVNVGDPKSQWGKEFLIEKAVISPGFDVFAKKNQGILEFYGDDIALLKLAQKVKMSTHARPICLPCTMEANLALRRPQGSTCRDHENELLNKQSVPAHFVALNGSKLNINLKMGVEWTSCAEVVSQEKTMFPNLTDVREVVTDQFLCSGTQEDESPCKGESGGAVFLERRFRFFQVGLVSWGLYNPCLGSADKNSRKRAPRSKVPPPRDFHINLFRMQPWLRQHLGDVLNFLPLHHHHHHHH

B1: RF16-214 (antibody, V domains shown)
VH: EVQLLESGGGLVQPGGSLRLSCAASGFTFSWYQMMWVRQAPGKGLEWVSRIYPSGGGTAYADSVKGRFTISRDNSKNTLYLQMNSLRAEDTAVYYCARDAGYGDNWGQGTLVTVSS
VL: QSALTQPPSVSVSPGQTASITCSGDKLGEKYASWYQQKAGQSPVMVIYQDRKRPSGIPERFSGSNSGNTATLTISGTQAMDEADYYCQAWDTRAVVFGGGTKLTVLG
A Kd (human C2 D419A) of 70.7 nM, a Kd (human C2 R434A) of 230 nM and a Kd (human C2 A472S) of 234 nM were found for B1 in this work. It also gave a Kd (human C2 S473A) of 68.7 nM.
